Four molecules from doi:10.1101/2021.02.05.429362 (bioRxiv, 2021) can be followed below.

The term Kd denotes the concentration at which binding is half-saturated. Higher therefore signals a looser complex.

Where “and” joins values, the source holds several entries; their conditions need not be identical. Identical values can stand only once. Like-named read-outs stand apart in the source and are kept apart here. Where no end group is shown, it is not given here.

The target of data set [1] is T1, G3BP1-NTF2 (residues 1-139) (human (by the printed UniProt entry …)). In words: nanoDSF.
Data set [2] addresses T1, G3BP1-NTF2 (residues 1-139). The experiment in a line: nanoDSF. The source holds these as a separate data set. On the technique in general: In DSF a fluorescence change marks the thermal transition of the protein.
Data set [3] shares this target. In words: nanoDSF. This is another data set of the same source.
Data set [4] has the same target. The experiment in a line: ITC. (In ITC the heat of successive injections is recorded.)
For data set [5] the target is unchanged. The experiment in a line: ITC. This is another data set of the same source.
In data set [6] the target is G3BP1-NTF2 H31A (human (by the printed UniProt entry …, UniProt Q13283, H31A)). In words: ITC.
For data set [7], the target named is T1, G3BP1-NTF2 (residues 1-139). The experiment in a line: ITC. This is another data set of the same source.

Sequence of G3BP1-NTF2 H31A (human (Q13283 1-139 H31A): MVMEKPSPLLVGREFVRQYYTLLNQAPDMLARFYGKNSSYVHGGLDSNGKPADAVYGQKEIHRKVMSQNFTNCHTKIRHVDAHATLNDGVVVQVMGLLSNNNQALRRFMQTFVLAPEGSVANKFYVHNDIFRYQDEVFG

B1: Caprin-1^356-386 peptide (peptide)
peptide: RQRVQDLMAQMQGPYNFIQDSMLDFENQTLD
As for B1, the dTm is 1.5 °C in data set [1], 4 °C in data set [2] and 1.3 °C in data set [3].

B2: GFP-Caprin-1^356-386 L378A (domain or fragment)
chain: {GFP}-RQRVQDLMAQMQGPYNFIQDSMADFENQTLD
Regarding B2, the Kd in data set [4] was about 20 µM.

B3: GFP-USP10^1-28 (domain or fragment)
chain: MALHSPQYIFGDFSPDEFNQFFVTPRSS
On to B3, for which the Kd in data set [5] was 0.5 µM; in data set [6] it was 3 µM; in data set [7], 1.5 ± 0.5 µM. Also, the values for the dH in data set [6] and in data set [4] were -75.3 kJ/mol and -71.1 ± 4.18 kJ/mol, respectively.

B4: GFP-Caprin-1^356-386 (domain or fragment)
chain: {GFP}-RQRVQDLMAQMQGPYNFIQDSMLDFENQTLD
B4: the Kd was determined as 1.4 µM in data set [5], 15 µM in data set [6] and 4 ± 2 µM in data set [7]. The dH in data set [6] was -66.9 kJ/mol; in data set [4], -75.3 kJ/mol and -71.1 kJ/mol.
